Measurements reported in US20210338838A1 (UNIVERSITY OF UTAH RESEARCH FOUNDATION, published 2021).
Numbering of substitutions follows the chain as printed.

B1: eCFHT-SK (engineered truncated CFH, I62-Y402, ending in SKSFTL) (other)
chain: EDCNELPPRRNTEILTGSWSDQTYPEGTQAIYKCRPGYRSLGNIIMVCRKGEWVALNPLRKCQKRPCGHPGDTPFGTFTLTGGNVFEYGVKAVYTCNEGYQLLGEINYRECDTDGWTNDIPICEVVKCLPVTAPENGKIVSSAMEPDREYHFGQAVRFVCNSGYKIEGDEEMHCSDDGFWSKEKPKCVEISCKSPDVINGSPISQKIIYKENERFQYKCNMGYEYSERGDAVCTESGWRPLPSCEEKSCDNPYIPNGDYSPLRIKHRTGDEITYQCRNGFYPATRGNTAKCTSTGWIPAPRCTLKPCDYPDIKHGGLYHENMRRPYFPVAVGKYYSYYCDEHFETPSGSYWDHIHCTQDGWSPAVPCLRKCYFPYLENGYNQNYGRKFVQGKSIDVACHPGYALPKAQTTVTCMENGWSPTPRCIRVSKSFTL
notes: Non-natural variant of human CFHT with SK inserted before the C-terminal SFTL; In the Western blot it was expressed from eCFH/T v4.2 in RPE1 cells; also called protective eCFHT-SK; truncated product of eCFH/T v4.2
B2: eCFHT-SE (engineered truncated CFH, I62-Y402, ending in SESFTL) (other)
chain: B1 chain with K429E
notes: The chain is built from the first 445 residues shared by CFH and CFHT, less the 18-residue signal peptide, plus the printed C-terminal SESFTL; His-tagged and purified from HEK293 cells; also called protective eCFHT-SE; truncated product of eCFH/T v4.3
B3: monomeric C-reactive protein (CRP) (other, UniProt P02741 19-224, looked up)
chain: QTDMSRKAFVFPKESDTSYVSLKAPLTKPLKAFTVCLHFYTELSSTRGYSIFSYATKRQDNEILIFWSKDIGYSFTVGGSEILFEVPEVTVAPVHICTSWESASGIVEFWVDGKPRVRKSLKKGYTVGAEASIILGQEQDSFGGNFEGSQSLVGDIGNVNMWDFVLSPDEINTIYLGGPFSPNVLNWRALKYEVQGEVFTKPQLWP
B4: protective CFH-I62-Y402-E936 (full-length complement factor H) (other)
chain: EDCNELPPRRNTEILTGSWSDQTYPEGTQAIYKCRPGYRSLGNIIMVCRKGEWVALNPLRKCQKRPCGHPGDTPFGTFTLTGGNVFEYGVKAVYTCNEGYQLLGEINYRECDTDGWTNDIPICEVVKCLPVTAPENGKIVSSAMEPDREYHFGQAVRFVCNSGYKIEGDEEMHCSDDGFWSKEKPKCVEISCKSPDVINGSPISQKIIYKENERFQYKCNMGYEYSERGDAVCTESGWRPLPSCEEKSCDNPYIPNGDYSPLRIKHRTGDEITYQCRNGFYPATRGNTAKCTSTGWIPAPRCTLKPCDYPDIKHGGLYHENMRRPYFPVAVGKYYSYYCDEHFETPSGSYWDHIHCTQDGWSPAVPCLRKCYFPYLENGYNQNYGRKFVQGKSIDVACHPGYALPKAQTTVTCMENGWSPTPRCIRVKTCSKSSIDIENGFISESQYTYALKEKAKYQCKLGYVTADGETSGSITCGKDGWSAQPTCIKSCDIPVFMNARTKNDFTWFKLNDTLDYECHDGYESNTGSTTGSIVCGYNGWSDLPICYERECELPKIDVHLVPDRKKDQYKVGEVLKFSCKPGFTIVGPNSVQCYHFGLSPDLPICKEQVQSCGPPPELLNGNVKEKTKEEYGHSEVVEYYCNPRFLMKGPNKIQCVDGEWTTLPVCIVEESTCGDIPELEHGWAQLSSPPYYYGDSVEFNCSESFTMIGHRSITCIHGVWTQLPQCVAIDKLKKCKSSNLIILEEHLKNKKEFDHNSNIRYRCRGKEGWIHTVCINGRWDPEVNCSMAQIQLCPPPPQIPNSHNMTTTLNYRDGEKVSVLCQENYLIQEGEEITCKDGRWQSIPLCVEKIPCSQPPQIEHGTINSSRSSQESYAHGTKLSYTCEGGFRISEENETTCYMGKWSSPPQCEGLPCKSPPEISHGVVAHMSDSYQYGEEVTYKCFEGFGIDGPAIAKCLGEKWSHPPSCIKTDCLSLPSFENAIPMGEKKDVYKAGEQVTYTCATYYKMDGASNVTCINSRWTGRPTCRDTSCVNPPTVQNAYIVSRQMSKYPSGERVRYQCRSPYEMFGDEEVMCLNGNWTEPPQCKDSTGKCGPPPPIDNGDITSFPLSVYAPASSVEYQCQNLYQLEGNKRITCRNGQWSEPPKCLHPCVISREIMENYNIALRWTAKQKLYSRTGESVEFVCKRGYRLSSRSHTLRTTCWDGKLEYPTCAKR
notes: In the Western blot it was expressed in RPE1 cells from plasmid pCTM133; also called CFH-Protection
B5: protective CFHT-I62-Y402 (truncated complement factor H ending in SFTL) (other)
chain: EDCNELPPRRNTEILTGSWSDQTYPEGTQAIYKCRPGYRSLGNIIMVCRKGEWVALNPLRKCQKRPCGHPGDTPFGTFTLTGGNVFEYGVKAVYTCNEGYQLLGEINYRECDTDGWTNDIPICEVVKCLPVTAPENGKIVSSAMEPDREYHFGQAVRFVCNSGYKIEGDEEMHCSDDGFWSKEKPKCVEISCKSPDVINGSPISQKIIYKENERFQYKCNMGYEYSERGDAVCTESGWRPLPSCEEKSCDNPYIPNGDYSPLRIKHRTGDEITYQCRNGFYPATRGNTAKCTSTGWIPAPRCTLKPCDYPDIKHGGLYHENMRRPYFPVAVGKYYSYYCDEHFETPSGSYWDHIHCTQDGWSPAVPCLRKCYFPYLENGYNQNYGRKFVQGKSIDVACHPGYALPKAQTTVTCMENGWSPTPRCIRVSFTL
notes: In the Western blot it was expressed in RPE1 cells from pCTM134 and from eCFH/T v4.1; also called CFHT-Protection; native protective CFHT

Key:
[1] = target: B3; assay: rank of binding affinity among six proteins, plate-based binding assays
[2] = target: T1, MDA-modified LDL particles; assay: as above
T1 construct: Not a plain protein; also called MDA-LDL; MDA adducts

[3] = target: T1, MDA-modified LDL particles; assay: plate-based binding assay, His-tagged recombinant protein from HEK293 cells
[4] = target: B4; assay: as above
[5] = target: B5; assay: as above
[6] = target: B1; assay: as above
[7] = target: B2; assay: as above
[8] = target: B3; assay: relative CRP-binding assay, detection antibody AbCam OX-24 (#Ab112197)
[9] = target: T1, MDA-modified LDL particles; assay: relative MDA-binding assay, detection antibody AbCam OX-24 (#Ab112197)
[10] = target: B3; assay: relative CRP-binding assay, percent of CFH-Risk, detection antibody AbCam OX-24 (#Ab112197)
[11] = target: T1, MDA-modified LDL particles; assay: relative MDA-binding assay, percent of CFH-Risk, detection antibody AbCam OX-24 (#Ab112197)
[12] = target: B3; assay: plate-based CRP binding assay, against protective CFH

Binder	Binding Affinity Rank (1 best to 6 worst) [1] [rank]	Binding Affinity Rank (1 best to 6 worst) [2] [rank]	Kd [3] [nM]	Kd [4] [nM]	Kd [5] [nM]	Kd [6] [nM]	Kd [7] [nM]	Binding Potential [8]	Binding Potential [9]	% FH-Risk [10] [%]	% FH-Risk [11] [%]	fold better binding affinity than CFH [12] [fold]
B1	1	3	290	–	–	–	–	–	–	–	–	–
B2	3	4	305	–	–	–	–	–	–	–	–	–
B3	–	–	–	127	14.3	13.7	25.3	–	–	–	–	–
B4	4	2	222	–	–	–	–	10	75	656	251	–
B5	2	1	219	–	–	–	–	87	32	5900	107	~10
